Measurements as given in paper PMC10946326.

Legend:
MORF WH1;p300 TAZ2 = MORF WH1;p300 TAZ2 (Homo sapiens;Homo sapiens?, UniProt Q8WYB5;Q09472 5-84;1722-1812, |); assay: NMR
MORF WH1 = biological target: T1, MORF WH1 (Homo sapiens, UniProt Q8WYB5 5-84); assay: EMSA
T1 sequence: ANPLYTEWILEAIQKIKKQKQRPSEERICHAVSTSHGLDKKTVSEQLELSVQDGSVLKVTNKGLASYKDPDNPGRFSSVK

MOZ WH1 = biological target: T2, MOZ WH1 (Homo sapiens, UniProt Q92794 2-86); assay: NMR
T2 sequence: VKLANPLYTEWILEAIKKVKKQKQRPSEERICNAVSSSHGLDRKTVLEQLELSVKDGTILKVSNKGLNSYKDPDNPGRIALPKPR

Measured: binding result

Chain of MORF WH1;p300 TAZ2 (Q09472 1722-1812, one chain of several): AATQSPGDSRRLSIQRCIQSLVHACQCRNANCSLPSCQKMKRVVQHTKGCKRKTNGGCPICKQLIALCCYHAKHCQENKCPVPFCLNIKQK

B1: CpG-DNA16 (dsDNA)
DNA 1: TAACCTGCGCACCATA
DNA 2: TATGGTGCGCAGGTTA
binds: all assays above
